PMC2766623, “The Vitamin B1 Metabolism of Staphylococcus aureus Is Controlled at Enzymatic and Transcriptional Levels” (PLoS ONE, 2009)

What was measured:
[1] = molecular target: S. aureus thiaminase type II (SaTenA) (Staphylococcus aureus ATCC25923); assay: SEC-MALS; Superdex 200 10/30 size exclusion column followed by static light scattering (miniDAWN Tristar); 100 mM Tris-HCl buffer, pH 8, 150 mM NaCl; affinity purified proteins
[2] = molecular target: S. aureus 4-amino-5-hydroxymethyl-2-methylpyrimidine (HMP) kinase (SaThiD) (Staphylococcus aureus ATCC25923); assay: as above
[3] = molecular target: S. aureus 5-(2-hydroxyethyl)-4-methylthiazole (THZ) kinase (SaThiM) (Staphylococcus aureus ATCC25923); assay: as above
[4] = molecular target: T1, SaGTPase (Staphylococcus aureus, UniProt P67682); assay: phosphate release, malachite green; format: biochemical; conditions: 1 mM substrate, 1 mM MgCl2, 100 mM MOPS pH 7.5, 37°C
T1 construct: gene rsgA; monomer; gtpase-epi-tpk operon
T1 sequence (P67682 1-291): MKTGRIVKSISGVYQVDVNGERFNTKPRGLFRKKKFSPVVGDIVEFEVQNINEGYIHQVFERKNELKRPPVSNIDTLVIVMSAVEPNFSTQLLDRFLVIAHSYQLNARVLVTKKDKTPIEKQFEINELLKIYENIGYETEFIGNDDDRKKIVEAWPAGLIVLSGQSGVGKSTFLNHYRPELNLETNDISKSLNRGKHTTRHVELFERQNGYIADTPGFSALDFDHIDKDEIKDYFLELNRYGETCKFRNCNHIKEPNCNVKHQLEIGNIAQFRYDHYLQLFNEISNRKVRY

[5] = substrate: Cc1ncc(CO)c(N)n1; assay: radiometric [gamma-33P]-ATP phosphorylation, TLC, Lineweaver-Burk; format: biochemical, Staphylococcus aureus; conditions: 1 mM ATP, 2 mM MgCl2, 100 mM potassium phosphate pH 7.5, 37°C
Description: radiometric [gamma-33P]-ATP phosphorylation, TLC, Lineweaver-Burk on SaThiD

[6] = substrate: Cc1ncc(COP(=O)(O)OP(=O)(O)O)c(N)n1; assay: purified protein; format: biochemical, Staphylococcus aureus; conditions: co-substrate THZ-[33P] (THZ phosphate), 37°C
[7] = substrate: Cc1ncc(C[n+]2csc(CCO)c2C)c(N)n1; assay: thiamine hydrolysis, products HMP/THZ measured by radiometric kinase assay, TLC, Lineweaver-Burk; format: biochemical, Staphylococcus aureus; conditions: 100 mM Tris-HCl pH 7.5, 37°C, no nucleophile needed
Description: thiamine hydrolysis, products HMP/THZ measured by radiometric kinase assay, TLC, Lineweaver-Burk on SaTenA

[8] = substrate: Cc1ncc(C[n+]2csc(CCO)c2C)c(N)n1; assay: purified protein; format: biochemical, Staphylococcus aureus; conditions: 2 mM ATP, 4 mM MnCl2, 100 mM Tris-HCl pH 8.5, 37°C

Question: With “S. aureus thiaminase type II (SaTenA) (enzyme)” as the molecule, how does the stoichiometry N [1] read?
Answer: 3

Question: Which stoichiometry N [2] does the source give for “S. aureus 4-amino-5-hydroxymethyl-2-methylpyrimidine (HMP) kinase (SaThiD) (enzyme)” here?
Answer: 2

Question: Which stoichiometry N [3] does the source give for “S. aureus 5-(2-hydroxyethyl)-4-methylthiazole (THZ) kinase (SaThiM) (enzyme)” here?
Answer: 2

Question: For Nc1nc2c(ncn2[C@@H]2O[C@H](COP(=O)(O)OP(=O)(O)OP(=O)(O)O)[C@@H](O)[C@H]2O)c(=O)[nH]1 [GTP], which “phosphate release, malachite green” value [4] is on record?
Answer: the S. aureus GTPase is not restricted to GTP and exhibits a broad substrate spectrum

B1: SaThiD (Staphylococcus aureus subsp. aureus N315) (protein)
chain: MIKPKIALTIAGTDPTGGAGVMADLKSFHSCGVYGMGVVTSIVAQNTLGVQHIHNLNHQWVDEQLDSVFNDTLPHAIKTGMIATADTMETIRHYLMQHESIPYVIDPVMLAKSGDSLMDNDTKQNLQHTLLPLADVVTPNLPEAEEITGLTIDSEEKIMQAGRIFINEIGSKGIIIKGGHSNDTDIAKDYLFTNEGVQTFENERFKTKHTHGTGCTFSAVITAELAKGRPLFEAVHKAKKFISMSIQYTPEIGRGRGPVNHFAYLKKEGLDDELSK
notes: dimer; 831 bp ORF in tenA-thiM-thiD-thiE operon
Question: B1 was tested. Which Km [5] did it give?
Answer: 635 ± 20 µM

Question: What about the kcat [5] of the same molecule?
Answer: 0.012 ± 0.00083 s⁻¹

B2: SaThiE (Staphylococcus aureus subsp. aureus NCTC 8325) (protein)
chain: MFNQSYLNVYFICGTSDVPSHRTIHEVLEAALKAGITLFQFREKGESALKGNDKLVLAKELQHLCHQYDVPFIVNDDVSLAKEINADGIHVGQDDAKVKEIAQYFTDKIIGLSISDLDEYAKSDLTHVDYIGVGPIYPTPSKHDAHIPVGPEMIATFKEMNPQLPIVAIGGINTNNVAPIVEAGANGISVISAISKSENIEKTVNRFKDFFNN
notes: low yield, three bands on SDS-PAGE
Question: With B2 as the molecule, how does the Km [6] read?
Answer: 145 ± 36 µM

B3: SaTenA (Staphylococcus aureus subsp. aureus NCTC 8325) (protein)
chain: MEFSQKLYQAAKPIINDIYEDDFIQKMLSGDIGADALRHYLKADAAYLKEFTNLYALLIPKMNSMNDVKFLVEQIEFMVEGEVLAHDILAQIVGESYEEIIKTKVWPPSGDHYIKHMYFQAHSRENAIYTIAAMAPCPYIYAELAKRSQSDHKLNREKDTAKWFDFYSTEMDDIINVFEAIMNKLAESMSDKELEQVKQVFLESCIHERRFFNMAMTLEQWEFGGKVND
notes: trimer by SLS
Question: For B3, which Km [7] is on record?
Answer: 256 ± 44 µM

Question: And the kcat [7]?
Answer: 0.0017 ± 0.00033 s⁻¹

B4: SaTPK (Staphylococcus aureus subsp. aureus NCTC 8325) (protein)
chain: MHINLLCSDRHLPQDIWAKSNEGKWGGVDRGALILLKHQIIPFFSVGDFDSVSKEERQLLTEQLQIKPVQAEKADTDLALAVDKAVALGFDSITIYGATGGRLDHFFGAIQLLLKKAYYKHDVHIEVIDQQNKIELLPKGQHTVEKDKSYPYISFIPMTDDVELSLAGFKYNLARQMLNIGSTLTISNEIESLQAKVTVHDGLILQIRSTDLN
notes: monomer; gtpase-epi-tpk operon
Question: For B4, which Km [8] is on record?
Answer: 394 ± 74 µM

Question: And the kcat [8]?
Answer: 0.0083 ± 0.0012 s⁻¹
